Values of other authors in PMC2659627 (Bioconjugate chemistry, 2008).
pIC50: −log10 of the molar value. DPr = 2,3-diaminopropanoyl

Tests used:
GRP-receptors = settings: read-out: IC50 (binding affinity to GRP-receptors); human PC-3 cell line
PC-3 cells = settings: after 90 min incubation with PC-3 cells

Substance | pIC50 (GRP-receptors) | Uptake in normal pancreas [ID/g] | Internalization (PC-3 cells) [%] | Uptake compared to DTPA-BBN[1-14] (CA20948 pancreas tumor) | Uptake compared to DTPA-BBN[1-14] (PC-3 prostate tumors) [times]
(DPr)-Ser-Ser-Ser-Gln-Trp-AlaVal-Gly-His-Leu-Met-(NH2) (DPr-SSSQWAVGHLM-NH2; also: Tc/Re tricarbonyl complex on DPr chelator) | ~9.07 | 16 ± 1.3 | 80 | – | –
DTPA-ACMpip-Tha^6-BAla^11-Tha^13-Nle^14-BBN[6-14] | – | – | – | two to three times higher | 1.3
